From patent publication US20120178701A1 (PALATIN TECHNOLOGIES, published 2012) come the findings set out here.

Numbered stars: 1 amine (or outer) side, 2 acyl side, 3 side chain; on linkers, the order of the positions; unused ones are H or OH. Bridge positions count the residues as written; N and C are the ends. Square brackets hold non-standard residues; d marks the D form. * marks the point of attachment. Hyp(Bzl) = O-benzyl-hydroxyproline, O=C([C@@H]1C[C@@H](OCc2ccccc2)CN1[*:1])[*:2]; Thr(Bzl) = O-benzyl-threonine, C[C@@H](OCc1ccccc1)[C@H](N[*:1])C(=O)[*:2]; Pro(trans-4-NH2) = O=C([C@@H]1C[C@@H](N[*:3])CN1[*:1])[*:2]; Phe(3-CONH2) = NC(=O)c1cccc(C[C@H](N)C(=O)O)c1; Phe(4-CONH2) = NC(=O)c1ccc(C[C@H](N)C(=O)O)cc1; Met(O2) = CS(=O)(=O)CC[C@H](N)C(=O)O; Hyp = O=C(O)[C@@H]1C[C@@H](O)CN1; Met(O) = CS(=O)CC[C@H](N)C(=O)O; Cit = NC(=O)NCCC[C@H](N)C(=O)O; Orn = NCCC[C@H](N)C(=O)O; Dab = NCC[C@H](N)C(=O)O; Pentanoyl = CCCCC(=O)*

Broadly, the Ki is the dissociation constant of the complex between target and ligand, obtained from inhibition or displacement.

The target in the assay is T1, human recombinant melanocortin-4 receptor (human, UniProt P32245 1-332).
T1 construct: whole, on cells; cAMP assays used the whole cells; also called hMC4-R; MC4-R
T1 sequence (P32245 whole entry): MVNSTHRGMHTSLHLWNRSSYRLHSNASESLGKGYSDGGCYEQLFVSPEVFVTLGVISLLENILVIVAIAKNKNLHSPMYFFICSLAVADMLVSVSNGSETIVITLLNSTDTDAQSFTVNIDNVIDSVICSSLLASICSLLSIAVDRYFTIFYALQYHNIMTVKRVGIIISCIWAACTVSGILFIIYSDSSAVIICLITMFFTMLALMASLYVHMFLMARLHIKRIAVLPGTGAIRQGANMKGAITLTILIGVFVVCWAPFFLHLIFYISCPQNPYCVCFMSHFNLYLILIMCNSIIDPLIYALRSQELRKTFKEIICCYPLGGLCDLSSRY
Put plainly: competitive inhibition of [I125]-NDP-α-MSH, hMC4-R HEK-293 membranes. On the procedure:
A competitive inhibition binding assay is performed using membrane homogenates prepared from HEK-293 cells that express recombinant hMC4-R, hMC3-R, or hMC5-R, and from B-16 mouse melanoma cells (containing endogenous MC1-R). In some instances, HEK-293 cells that express recombinant hMC1-R were employed. In the examples that follow, all MC3-R, MC4-R and MC5-R values are for human recombinant receptors. […] Membrane homogenates were incubated with 0.2 nM (for hMC4-R) 0.4 nM (for MC3-R and MC5-R) or 0.1 nM (for mouse B16 MC1-R or hMC1-R) [I¹²⁵]-NDP-α-MSH (Perkin Elmer) and increasing concentrations of test peptides of the present invention in buffer containing 25 mM HEPES buffer (pH 7.5) with 100 mM NaCl, 2 mM CaCl₂, 2 mM MgCl₂, 0.3 mM 1,10-phenanthroline, and 0.2% bovine serum albumin. After incubation for 60 minutes at 37° C., the assay mixture was filtered and the membranes washed three times with ice-cold buffer. Filters were dried and counted in a gamma counter for bound radioactivity. […] Maximal specific binding (100%) was defined as the difference in radioactivity (cpm) bound to cell membranes in the absence and presence of 1 μM NDP-α-MSH. […] Each assay was conducted in triplicate and the actual mean values are described, with results less than 0% reported as 0%. Ki values for test peptides of the present invention were determined using Graph-Pad Prism® curve-fitting software.
9.1 Peptides of the following structures were synthesized by the general methods described above, and averaged MC4-R Ki values for peptides were determined as indicated. […] Ki values marked “ND” were not determined.

As for Pentanoyl-EH[dF]R[Dab]W-NH2 (lactam 1-5, also called peptide No. 153) [n-C4H9-CO-cyclo(Glu-His-D-Phe-Arg-Dab)-Trp-NH2], the Ki was found to be 365 nM.
The result for Ac-R[Orn]H[dF]RWE-NH2 (lactam 2-7, also called peptide No. 75) [Ac-Arg-cyclo(Orn-His-D-Phe-Arg-Trp-Glu)-NH2] reads 0.6 nM.
The result for Ac-RD[Pro(Bn)][dF]RWK-OH (lactam 2-7, also called peptide No. 55) [Ac-Arg-cyclo(Asp-Pro(Bn)-D-Phe-Arg-Trp-Lys)-OH] reads 12 nM.
As for Ac-RE[Pro(trans-4-NH2)][dF]RW[Orn]-NH2 (lactam 2-7, also called peptide No. 112) [Ac-Arg-Cyclo(Glu-Pro(4R-NH2)-D-Phe-Arg-Trp-Orn)-NH2], the Ki was determined as 6 nM.
The result for Ac-REN[dF]RW[Orn]-OH (lactam 2-7, also called peptide No. 91) [Ac-Arg-cyclo(Glu-Asn-D-Phe-Arg-Trp-Orn)-OH] reads 167 nM.
With Ac-RE[Met(O)][dF]RW[Orn]-NH2 (lactam 2-7, also called peptide No. 111) [Ac-Arg-cyclo(Glu-Met(═O)-D-Phe-Arg-Trp-Orn)-NH2], the Ki is 9 nM.
Ac-RE[Met(O2)][dF]RW[Orn]-NH2 (lactam 2-7, also called peptide No. 100) [Ac-Arg-cyclo(Glu-Met(O2)-D-Phe-Arg-Trp-Orn)-NH2]: the Ki amounted to 8 nM.
The result for Ac-REK[dF]RW[Orn]-NH2 (lactam 2-7) [Ac-Arg-cyclo(Glu-Lys-D-Phe-Arg-Trp-Orn)-NH2] reads 15 nM.

B1: Ac-Arg-cyclo(hGlu-Gln-D-Phe-Arg-Trp-Dab)-NH2 (peptide)
peptide: RXQFRWX
modifications: N-acetyl; X2 = hGlu; D-Phe 4; X7 = Dab; side-chain lactam hGlu2-Dab7; C-terminal amide
notes: also called peptide No. 147
On to B1, for which the Ki was found to be 20 nM.

B2: Ac-Arg-cyclo(hGlu-Met(O2)-D-Phe-Arg-Trp-Dab)-NH2 (peptide)
peptide: RXMFRWX
HELM: PEPTIDE1{[ac].R.[O=C([C@H](CCCC(=O)[*:3])N[*:1])[*:2]].[CS(=O)(=O)CC[C@H](N[*:1])C(=O)[*:2]].[dF].R.W.[Dab].[am]}$PEPTIDE1,PEPTIDE1,3:R3-8:R3$$$V2.0
SMILES: CC(=O)N[C@@H](CCCNC(=N)N)C(=O)N[C@H]1CCCC(=O)NCC[C@@H](C(N)=O)NC(=O)[C@H](Cc2c[nH]c3ccccc23)NC(=O)[C@H](CCCNC(=N)N)NC(=O)[C@@H](Cc2ccccc2)NC(=O)[C@H](CCS(C)(=O)=O)NC1=O
Take B2: the Ki is 4 nM.
The result for H-R[Orn]H[dF]RWE-NH2 (lactam 2-7, also called peptide No. 99) [Arg-cyclo(Orn-His-D-Phe-Arg-Trp-Glu)-NH2] reads 6 nM; that for Ac-REH[dF]RW[Orn]-OH (lactam 2-7, also called peptide No. 82) [Ac-Arg-cyclo(Glu-His-D-Phe-Arg-Trp-Orn)-OH], 4 nM; that for Ac-RD[Hyp(Bzl)][dF]RWK-OH (lactam 2-7, also called peptide No. 54) [Ac-Arg-cyclo(Asp-Hyp(Bzl)-D-Phe-Arg-Trp-Lys)-OH], 3 nM.
The result for Ac-RE[Orn](Ac)[dF]RW[Orn]-NH2 (lactam 2-7, also called peptide No. 149) [Ac-Arg-cyclo(Glu-Orn(Acetyl)-D-Phe-Arg-Trp-Orn)-NH2] reads 7 nM.

B3: Ac-Arg-cyclo(Lys-Dab-D-Phe-Arg-Trp-Asp)-NH2 (peptide)
peptide: RKXFRWD
HELM: PEPTIDE1{[ac].R.K.[Dab].[dF].R.W.D.[am]}$PEPTIDE1,PEPTIDE1,3:R3-8:R3$$$V2.0
SMILES: CC(=O)N[C@@H](CCCNC(=N)N)C(=O)N[C@H]1CCCCNC(=O)C[C@@H](C(N)=O)NC(=O)[C@H](Cc2c[nH]c3ccccc23)NC(=O)[C@H](CCCNC(=N)N)NC(=O)[C@@H](Cc2ccccc2)NC(=O)[C@H](CCN)NC1=O
notes: also called peptide No. 121
Take B3: the Ki is 0.4 nM.
Turning to Ac-RD[Pro(trans-4-NH2)][dF]RWK-NH2 (lactam 2-7, also called peptide No. 80) [Ac-Arg-cyclo(Asp-Pro(4R-NH2)-D-Phe-Arg-Trp-Lys)-NH2], the Ki was 5 nM.
Take Ac-RD[Hyp][dF]RWK-NH2 (lactam 2-7, also called peptide No. 79) [Ac-Arg-cyclo(Asp-Hyp-D-Phe-Arg-Trp-Lys)-NH2]: the inhibition constant Ki amounted to 4 nM.
The result for Ac-RE[Orn][dF]RW[Orn]-OH (lactam 2-7, also called peptide No. 90) [Ac-Arg-cyclo(Glu-Orn-D-Phe-Arg-Trp-Orn)-OH] reads 9 nM.
The result for Ac-RKQ[dF]RWD-NH2 (lactam 2-7, also called peptide No. 151) [Ac-Arg-cyclo(Lys-Gln-D-Phe-Arg-Trp-Asp)-NH2] reads 4 nM.

B4: Ac-Gln-cyclo(Asp-Dab-D-Phe-Arg-Trp-Lys)-NH2 (peptide)
peptide: QDXFRWK
HELM: PEPTIDE1{[ac].Q.D.[Dab].[dF].R.W.K.[am]}$PEPTIDE1,PEPTIDE1,3:R3-8:R3$$$V2.0
SMILES: CC(=O)N[C@@H](CCC(N)=O)C(=O)N[C@H]1CC(=O)NCCCC[C@@H](C(N)=O)NC(=O)[C@H](Cc2c[nH]c3ccccc23)NC(=O)[C@H](CCCNC(=N)N)NC(=O)[C@@H](Cc2ccccc2)NC(=O)[C@H](CCN)NC1=O
notes: also called peptide No. 142
In the case of B4, the Ki came out at 15 nM.
Consider Ac-RDK[dF][Cit]WK-NH2 (lactam 2-7, also called peptide No. 116) [Ac-Arg-cyclo(Asp-Lys-D-Phe-Cit-Trp-Lys)-NH2], for which the Ki was 873 nM.

B5: Ac-Arg-cyclo(Lys-Dab-D-Phe-Arg-Trp-Asp)-OH (peptide)
peptide: RKXFRWD
HELM: PEPTIDE1{[ac].R.K.[Dab].[dF].R.W.D}$PEPTIDE1,PEPTIDE1,3:R3-8:R3$$$V2.0
SMILES: CC(=O)N[C@@H](CCCNC(=N)N)C(=O)N[C@H]1CCCCNC(=O)C[C@@H](C(=O)O)NC(=O)[C@H](Cc2c[nH]c3ccccc23)NC(=O)[C@H](CCCNC(=N)N)NC(=O)[C@@H](Cc2ccccc2)NC(=O)[C@H](CCN)NC1=O
notes: also called peptide No. 131
Consider B5, for which the Ki was determined as 35 nM.

B6: Ac-Arg-cyclo(Asp-His-D-Nal 1-Arg-Trp-Lys)-NH2 (peptide)
peptide: RDHXRWK
modifications: N-acetyl; X4 = D-Nal 1 (D-3-(1-naphthyl)alanine); side-chain lactam Asp2-Lys7; C-terminal amide
notes: also called peptide No. 19
Consider B6, for which the Ki was 3 nM.

B7: Ac-Orn-cyclo(Orn-Asn-D-Phe-Arg-Trp-Glu)-NH2 (peptide)
peptide: XXNFRWE
HELM: PEPTIDE1{[ac].[Orn].[Orn].N.[dF].R.W.E.[am]}$PEPTIDE1,PEPTIDE1,3:R3-8:R3$$$V2.0
SMILES: CC(=O)N[C@@H](CCCN)C(=O)N[C@H]1CCCNC(=O)CC[C@@H](C(N)=O)NC(=O)[C@H](Cc2c[nH]c3ccccc23)NC(=O)[C@H](CCCNC(=N)N)NC(=O)[C@@H](Cc2ccccc2)NC(=O)[C@H](CC(N)=O)NC1=O
notes: also called peptide No. 158
Turning to B7, the Ki worked out at 50 nM.
The result for Ac-RDN[dF]RWK-OH (lactam 2-7, also called peptide No. 56) [Ac-Arg-cyclo(Asp-Asn-D-Phe-Arg-Trp-Lys)-OH] reads 100 nM; that for Ac-RDK[dF]RWK-NH2 (lactam 2-7, also called peptide No. 2) [Ac-Arg-cyclo(Asp-Lys-D-Phe-Arg-Trp-Lys)-NH2], 30 nM.
For the molecule Ac-RDQ[dF]RWK-OH (lactam 2-7, also called peptide No. 57) [Ac-Arg-cyclo(Asp-Gln-D-Phe-Arg-Trp-Lys)-OH], the inhibition constant (Ki) was determined as 115 nM.
Ac-RD[Phe(4-CONH2)][dF]RWK-NH2 (lactam 2-7, also called peptide No. 50) [Ac-Arg-cyclo(Asp-Phe(4-(C(═O)-NH2))-D-Phe-Arg-Trp-Lys)-NH2]: the inhibition constant Ki was 30 nM.
The result for Ac-RD[Met(O2)][dF]RWK-NH2 (lactam 2-7, also called peptide No. 77) [Ac-Arg-cyclo(Asp-Met-(O2)-D-Phe-Arg-Trp-Lys)-NH2] reads 7 nM.
The result for Ac-RD[Thr(Bzl)][dF]RWK-NH2 (lactam 2-7, also called peptide No. 14) [Ac-Arg-cyclo(Asp-Thr(Bzl)-D-Phe-Arg-Trp-Lys)-NH2] reads 1 nM.
The result for Ac-RDS[dF]RWK-NH2 (lactam 2-7, also called peptide No. 3) [Ac-Arg-cyclo(Asp-Ser-D-Phe-Arg-Trp-Lys)-NH2] reads 172 nM.
Regarding Ac-RD[Phe(3-CONH2)][dF]RWK-NH2 (lactam 2-7, also called peptide No. 49) [Ac-Arg-cyclo(Asp-Phe-(3-(C(═O)-NH2))-D-Phe-Arg-Trp-Lys)-NH2], the inhibition constant Ki came to 15 nM.
